# B1: CR2 probe (dsDNA)
# DNA 1: CAGCTCTAACCCTAAACAAGTGCTCAACCCTTGAATGGGCCTGGATGGCT
# DNA 2: AGCCATCCAGGCCCATTCAAGGGTTGAGCACTTGTTTAGGGTTAGAGCTG
# Target: T1, PRDM14 DNA binding domain (C-terminal 179 aa) (Homo sapiens, UniProt Q9GZV8 SEQ:393-571)
# T1 sequence: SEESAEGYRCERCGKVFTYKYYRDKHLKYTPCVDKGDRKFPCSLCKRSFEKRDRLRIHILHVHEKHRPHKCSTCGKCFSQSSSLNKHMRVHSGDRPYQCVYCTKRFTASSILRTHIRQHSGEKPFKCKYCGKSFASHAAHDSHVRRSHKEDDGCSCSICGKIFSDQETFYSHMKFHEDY
# Experiment: EMSA; 100 ng protein, 1 ng probe, poly(dI-dC), 10 mM ZnCl2, 60 mM KCl, pH 7.9, room temperature
# Details: tags: His tag, pET42b, E. coli BL21; label: 5' biotin on sense strand
# Procedure: Recombinant PRDM14 DNA binding domain (His tagged) was used in the gel shift assays. Briefly, a cDNA encoding 179 amino acids of the C terminus of PRDM14 was cloned into the pET42b (Novagen) vector using cloning sites NdeI and XhoI. The fusion construct was transformed into BL21 competent cells (Strategene) according to the supplier's instructions. Purified proteins were dialyzed against a dialysis buffer (10 mM Tris-HCl, pH 7.4, 100 mM NaCl, 10 mM ZnCl₂ and 10% glycerol) at 4° C. for 6 hr. Oligonucleotides (Proligo) labeled with biotin at the 5′ end of the sense strands were annealed with the antisense strands in the annealing buffer (10 mM Tris-HCl, pH8.0, 50 mM NaCl, 1 mM EDTA) and purified with agarose gel DNA extraction kit (Qiagen). DNA concentrations were determined by the NanoDrop ND-1000 spectrophotometer. The gel shift assays were performed using a LightShift Chemiluminescent EMSA kit (Pierce Biotechnologies). 100 ng of protein was added to a 5 μl reaction mixture (final) containing 1 μg of poly(dI-dC) (Amersham), 1 ng of biotin-labeled oligonucleotide in the binding buffer (12 mM HEPES, pH7.9, 10% glycerol, 60 mM KCl, 0.25 mM EDTA, 1 mM DTT, 10 mM ZnCl₂). Binding reaction mixtures were incubated for 20 min at room temperature. […] Gels were transferred to Biodyne B nylon membranes (Pierce Biotechnologies) using western blot techniques and detected using chemiluminescence.
binder,measurement,value
B1,binding result,binds

# — US20130078720, “METHOD FOR INDUCING PLURIPOTENCY IN HUMAN SOMATIC CELLS WITH PRDM14 OR NFRKB” (Agency for Science, Technology and Research, published 2013)
